Assay results taken from paper PMC7660256.

Target: T1, PdhR (Escherichia coli K-12 W3110) (UniProt P0ACL9)
T1 sequence: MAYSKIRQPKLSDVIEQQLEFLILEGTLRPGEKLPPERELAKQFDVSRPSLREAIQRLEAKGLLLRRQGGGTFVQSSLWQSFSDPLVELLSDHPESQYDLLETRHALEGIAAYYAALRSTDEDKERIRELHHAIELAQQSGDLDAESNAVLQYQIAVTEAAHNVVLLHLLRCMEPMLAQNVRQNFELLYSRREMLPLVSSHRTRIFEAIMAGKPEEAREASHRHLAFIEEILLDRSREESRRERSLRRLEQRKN
Assay: EMSA
Settings: Gel shift buffer (composition not given), 37 °C, 30 min; 0.2 pmol probe, 0-10 pmol PdhR; GelRed stain. gSELEX: 10 mM Tris-HCl pH 7.8 (4 °C), 3 mM Mg acetate …

With “CTCTATATCACTCTCACAAATTCGCTCAAATAATAAACAATAAACTCTGTTTTTTGATCTCACCCGGTAAAGTCGCCTATCTTTTCAGCAACAAAACTTGATTAACATCAATTTTGGTATGACCAATGCACCATTCATGTTATTCTCAATAGCGAAGAACATTTTCATTGCTGTAACCTGTTGTTAATTAAGAGCTATGTTAATAACCATTAATTAACAATTGGTTAATAAATTTAAGGGGGTCACG (double strand) [ndh probe]” the binding was “binds”.
